Laboratory results taken from patent publication US6800467B1, “Polypeptides having aminopeptidase activity and nucleic acids encoding same” (Novozymes Biotech, Inc., priority 1997, dated 2004).

Assays:
Type in all cases: biochemical
[1] = Kinetic parameters (Lineweaver-Burke plot) at pH 7.5; conditions: for kcat: average molecular weight of 97 kDa used
Procedure: The kinetic parameters for various aminopeptidase II substrates was determined using the following protocol. Purified aminopeptidase II with an A280 of 0.581 was used. Each substrate was dissolved in DMSO to a concentration of 100 mg/ml and then diluted 50 fold in 50 mM sodium phosphate pH7.5 buffer to 2 mg/ml. The substrates included Leu-pNA, Glu-pNA (Bachem, Torrance, Calif.), and Ala-pNA. In a 96 well microtiter plate, 10 μl of purified aminopeptidase II was incubated with each substrate as follows except 50 µl of purified aminopeptidase II was incubated with Glu-pNA, and the absorbance at 405 nm was measured for 4 minutes:
1. 200 μl of 2 mg/ml substrate+0 μl of 50 mM sodium phosphate buffer pH 7.5
2. 100 μl of 2 mg/ml substrate+100 μl of 50 mM sodium phosphate buffer pH 7.5
3. 50 μl of 2 mg/ml substrate+150 μl of 50 mM sodium phosphate buffer pH 7.5
4. 25 μl of 2 mg/ml substrate+175 μl of 50 mM sodium phosphate buffer pH 7.5

sodium-caseinate = assay: Degree of hydrolysis (DH) assay, casein; conditions: vs 3 LAPUs FLAVOURZYME alone
Procedure: (§1) The purified aminopeptidase II described in Example 11 was tested in degree of hydrolysis assays using soy, wheat gluten, and casein as substrates according to the following procedure.
(§2) The degree of hydrolysis (DH) assays were performed at 50° C. for 18 hours as a mini-hydrolysis on a 10 ml scale using soy bean meal tablets, wheat gluten meal tablets, and sodium-caseinate at a 2% concentration adjusted to pH 7, if necessary, with no pH adjustment during hydrolysis. The hydrolysates were inactivated at 85° C. for 3 minutes in a waterbath. The enzymes used were FLAVOURZYME™ and aminopeptidase II. The enzymes were dosed as follows. […] Upon hydrolysis, p-nitroanilide is liberated turning the solution yellow which is monitored 405 nm.
(§3) The degree of hydrolysis (DH), as defined as described by Adler-Nissen (1986, Enzymic Hydrolysis of Food Proteins, Elsevier Applied Science Publishers), was determined by reaction of the supernatant with OPA (ortho-phtaldialdehyde, Sigma Chemical Co., St. Louis, Mo.) according to the following procedure The hydrolysate was diluted 100-fold into distilled water. […] The solution was then shaken well and after 2 minutes exactly, the absorbance at 340 nm was measured and compared to the absorbance of a 0.95 mM L-serine (distilled water) solution after subtraction of the blank value (water reacted with OPA reagent). […]

[2] = Temperature stability of the aminopeptidase II, residual activity on Leu-pNA
Procedure: The temperature stability of the aminopeptidase II was determined using the following protocol: 480 μl of 50 mM sodium phosphate buffer pH 7.5 was preincubated at 37°, 45°, 55°, 60°, 65°, 70°, and 75° C. for 30 minutes in a 1.7 ml Eppendorf tube. Then 20 μl of purified aminopeptidase II was added and the sample was then incubated for an additional 20 minutes. The samples were then placed on ice. Once the incubations were completed for all the temperatures, the samples were then assayed for activity using Leu-pNA as substrate.
The assay was performed by mixing 100 μl of the incubation mixtures for the various temperatures with 100 μl of 2 mg/ml Leu-pNA in 50 mM sodium phosphate pH 7.5 buffer at ambient temperature. The absorbance at 405 nm was monitored for 5 minutes.

gelatin = assay: Degree of hydrolysis (DH) assay, gelatin
soy bean meal tablets = assay: Degree of hydrolysis (DH) assay, soy; conditions: vs 3 LAPUs FLAVOURZYME alone, 50° C., 18 hours
Procedure: as §1, §2, §3

[3] = 2 LAPUs aminopeptidase II added to 3 LAPUs FLAVOURZYME

B1: aminopeptidase II: Recombinant Aspergillus oryzae 1568 (ATCC 20386) aminopeptidase II, 496 amino acids (SEQ ID NO:2), produced in Aspergillus oryzae or Fusarium (protein)
chain: MRSLLWASLLSGVLAGRALVSPDEFPEDIQLEDLLEGSQQLEDFAYAYPERNRVFGGKAHDDTVNYLYEELKKTGYYDVYKQPQVHLWSNADQTLKVGDEEIEAKTMTYSPSVEVTADVAVVKNLGCSEADYPSDVEGKVALIKRGECPFGDKSVLAAKAKAAASIVYNNVAGSMAGTLGAAQSDKGPYSAIVGISLEDGQKLIKLAEAGSVSVDLWVDSKQENRTTYNVVAQTKGGDPNNVVALGGHTDSVEAGPGINDDGSGIISNLVIAKALTQYSVKNAVRFLFWTAEEFGLLGSNYYVSHLNATELNKIRLYLNFDMIASPNYALMIYDGDGSAFNQSGPAGSAQIEKLFEDYYDSIDLPHIPTQFDGRSDYEAFILNGIPSGGLFTGAEGIMSEENASRWGGQAGVAYDANYHAAGDNMTNLNHEAFLINSKATAFAVATYANDLSSIPKRNTTSSLHRRARTMRPFGKRAPKTHAHVSGSGCWHSQVEA
[1]; substrate Ala-pNA, enzyme of Example 15
  Km: 1490 µM
[1]; substrate Glu-pNA
  kcat: 0.137 s⁻¹
[1]; substrate Glu-pNA, enzyme of Example 15
  Km: 1170 µM
[1]; substrate Leu-pNA
  kcat: 3.848 s⁻¹
[1]; substrate Leu-pNA, enzyme of Example 15 (produced by Fusarium)
  Km: 5780 µM
sodium-caseinate; 1 LAPU aminopeptidase II added to 3 LAPUs FLAVOURZYME
  increase of absolute DH: 7%
sodium-caseinate; [3]
  increase of absolute DH: 9%
[2]; 20 minutes at 37° C., pH 7.5, no substrate (reference)
  Percent activity relative to 37° C.: 100
[2]; 20 minutes at 45° C., pH 7.5, no substrate
  Percent activity relative to 37° C.: 101
[2]; 20 minutes at 55° C., pH 7.5, no substrate
  Percent activity relative to 37° C.: 99
[2]; 20 minutes at 60° C., pH 7.5, no substrate
  Percent activity relative to 37° C.: 90
[2]; 20 minutes at 65° C., pH 7.5, no substrate
  Percent activity relative to 37° C.: 73.7
[2]; 20 minutes at 70° C., pH 7.5, no substrate
  Percent activity relative to 37° C.: 64.6
[2]; 20 minutes at 75° C., pH 7.5, no substrate
  Percent activity relative to 37° C.: 46
gelatin; 2 LAPUs added to 3 LAPUs FLAVOURZYME
  increase of absolute DH: 4.9%
gelatin; 5 LAPUs added to 3 LAPUs FLAVOURZYME
  increase of absolute DH: 5.3%
Soy bean meal tablets; [3]
  increase of absolute DH: at least 8%
Soy bean meal tablets; 5 LAPUs aminopeptidase II added to 3 LAPUs FLAVOURZYME
  increase of absolute DH: ≥ 10%
